Test results as given in the supplement of paper PMC9112550, “Optimization of the antimicrobial peptide Bac7 by deep mutational scanning” (BMC Biology, 2022).

system: Escherichia coli TOP10; assay: shrunken log2 fold change of peptide-encoding DNA abundance (4.5 h post-induction vs induction); higher = less antimicrobial activity (less host growth inhibition); conditions: time post-induction: 4.5 h; library: site-saturation at positions 5, 18, 19, 20
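Note: peptides expressed intracellularly from a pBAD plasmid library in pooled LB shake-flask culture, induced with 0.3% L-arabinose, DNA abundance read by NGS, three biological replicates, DESeq2 with apeglm shrinkage.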

RRIRNRPPRLPRPRPRPFKNPRP and RRIRDRPPRLPRPRPRPLGYPRP are within 0.2 log units of each other in “shrunken log2 fold change” value: 0.0633 for the first, 0.0343 for the second.

RRIRVRPPRLPRPRPRPNHMPRP and RRIRERPPRLPRPRPRPCWAPRP are within 0.2 log units of each other in “shrunken log2 fold change” value: -0.0124 for the first, 0.00771 for the second.

Going from RRIRHRPPRLPRPRPRPITHPRP to RRIRIRPPRLPRPRPRPIYDPRP, the “shrunken log2 fold change” value falls from -0.23 to -0.471.

RRIRNRPPRLPRPRPRPGFGPRP and RRIRLRPPRLPRPRPRPTRTPRP are within 0.2 log units of each other in “shrunken log2 fold change” value: 0.25 for the first, 0.243 for the second.

RRIRQRPPRLPRPRPRPAEQPRP and RRIRWRPPRLPRPRPRPRAHPRP are within 0.2 log units of each other in “shrunken log2 fold change” value: -0.000243 for the first, 0.167 for the second.

First: RRIRTRPPRLPRPRPRPCCPPRP
Second: RRIRERPPRLPRPRPRPYDVPRP
The “shrunken log2 fold change” value of the first is lower: -0.305 for the first, -0.000921 for the second.

RRIRHRPPRLPRPRPRPAGHPRP and RRIRHRPPRLPRPRPRPVWDPRP are within 0.2 log units of each other in “shrunken log2 fold change” value: -0.0991 for the first, -0.0821 for the second.

First: RRIRRRPPRLPRPRPRPKHCPRP
Second: RRIRYRPPRLPRPRPRPTGTPRP
The “shrunken log2 fold change” value of the first is higher: 0.294 for the first, -0.172 for the second.

RRIRTRPPRLPRPRPRPAYKPRP and RRIRLRPPRLPRPRPRPHRDPRP are within 0.2 log units of each other in “shrunken log2 fold change” value: 0.0328 for the first, -0.0661 for the second.

First: RRIRIRPPRLPRPRPRPCWIPRP
Second: RRIRWRPPRLPRPRPRPQQPPRP
The “shrunken log2 fold change” value of the first is lower: -0.222 for the first, 0.383 for the second.

Compared with RRIRARPPRLPRPRPRPFDEPRP, RRIRHRPPRLPRPRPRPFTMPRP is lower in “shrunken log2 fold change” value: 0.194 for the first, -0.349 for the second.

RRIRQRPPRLPRPRPRPGIYPRP and RRIRSRPPRLPRPRPRPNQPPRP are within 0.2 log units of each other in “shrunken log2 fold change” value: -0.0206 for the first, 0.0618 for the second.

First: RRIRGRPPRLPRPRPRPPSRPRP
Second: RRIRVRPPRLPRPRPRPNRHPRP
The “shrunken log2 fold change” value of the first is higher: 1.11 for the first, -0.195 for the second.

RRIRCRPPRLPRPRPRPQAIPRP and RRIRVRPPRLPRPRPRPCWFPRP are within 0.2 log units of each other in “shrunken log2 fold change” value: -0.205 for the first, -0.106 for the second.

RRIRWRPPRLPRPRPRPKHTPRP and RRIRKRPPRLPRPRPRPKMKPRP are within 0.2 log units of each other in “shrunken log2 fold change” value: 0.578 for the first, 0.444 for the second.

Compared with RRIRMRPPRLPRPRPRPCWIPRP, RRIRQRPPRLPRPRPRPAMGPRP is higher in “shrunken log2 fold change” value: -0.351 for the first, 0.127 for the second.

First: RRIRLRPPRLPRPRPRPETEPRP
Second: RRIRRRPPRLPRPRPRPMPQPRP
The “shrunken log2 fold change” value of the first is lower: 0.0833 for the first, 0.376 for the second.

First: RRIRGRPPRLPRPRPRPERVPRP
Second: RRIRFRPPRLPRPRPRPDWCPRP
The “shrunken log2 fold change” value of the first is higher: 0.397 for the first, -0.00301 for the second.

RRIRHRPPRLPRPRPRPMFQPRP and RRIRNRPPRLPRPRPRPWPFPRP are within 0.2 log units of each other in “shrunken log2 fold change” value: -0.0107 for the first, 0.0256 for the second.

Going from RRIRWRPPRLPRPRPRPEWPPRP to RRIRNRPPRLPRPRPRPNNRPRP, the “shrunken log2 fold change” value falls from 0.956 to 0.113.

RRIRVRPPRLPRPRPRPRISPRP and RRIRLRPPRLPRPRPRPMKWPRP are within 0.2 log units of each other in “shrunken log2 fold change” value: -0.187 for the first, 0.0101 for the second.

Going from RRIRRRPPRLPRPRPRPETLPRP to RRIRLRPPRLPRPRPRPPYAPRP, the “shrunken log2 fold change” value rises from 0.0675 to 0.296.

RRIRPRPPRLPRPRPRPHKSPRP and RRIRYRPPRLPRPRPRPGGIPRP are within 0.2 log units of each other in “shrunken log2 fold change” value: -0.283 for the first, -0.0836 for the second.

RRIRSRPPRLPRPRPRPRKIPRP and RRIRRRPPRLPRPRPRPPLKPRP are within 0.2 log units of each other in “shrunken log2 fold change” value: 0.12 for the first, 0.302 for the second.

Going from RRIRIRPPRLPRPRPRPKRAPRP to RRIRYRPPRLPRPRPRPCWYPRP, the “shrunken log2 fold change” value falls from 0.283 to -1.03.

Going from RRIRMRPPRLPRPRPRPAREPRP to RRIRLRPPRLPRPRPRPEQQPRP, the “shrunken log2 fold change” value falls from 1.86 to 0.0529.

Compared with RRIRDRPPRLPRPRPRPKRGPRP, RRIRQRPPRLPRPRPRPPLGPRP is higher in “shrunken log2 fold change” value: 0.0777 for the first, 0.547 for the second.

RRIRPRPPRLPRPRPRPFNGPRP and RRIRPRPPRLPRPRPRPWVQPRP are within 0.2 log units of each other in “shrunken log2 fold change” value: -0.014 for the first, 0.0127 for the second.

Compared with RRIRRRPPRLPRPRPRPAAWPRP, RRIRTRPPRLPRPRPRPQSKPRP is lower in “shrunken log2 fold change” value: 0.0944 for the first, -0.209 for the second.

Going from RRIRPRPPRLPRPRPRPRPPPRP to RRIRNRPPRLPRPRPRPLCLPRP, the “shrunken log2 fold change” value falls from 0.831 to -0.311.

RRIRDRPPRLPRPRPRPIIAPRP and RRIRTRPPRLPRPRPRPVRQPRP are within 0.2 log units of each other in “shrunken log2 fold change” value: 0.0706 for the first, 0.264 for the second.

First: RRIRRRPPRLPRPRPRPHFHPRP
Second: RRIRRRPPRLPRPRPRPDRDPRP
The “shrunken log2 fold change” value of the first is lower: -0.217 for the first, 0.15 for the second.

Going from RRIRFRPPRLPRPRPRPCWIPRP to RRIRWRPPRLPRPRPRPGAFPRP, the “shrunken log2 fold change” value rises from -0.354 to 0.3.

Compared with RRIRARPPRLPRPRPRPVMTPRP, RRIRPRPPRLPRPRPRPRACPRP is higher in “shrunken log2 fold change” value: -0.00766 for the first, 0.456 for the second.

RRIRWRPPRLPRPRPRPHTNPRP and RRIRSRPPRLPRPRPRPKCYPRP are within 0.2 log units of each other in “shrunken log2 fold change” value: -0.283 for the first, -0.16 for the second.

Compared with RRIRRRPPRLPRPRPRPMMPPRP, RRIRRRPPRLPRPRPRPLCTPRP is higher in “shrunken log2 fold change” value: 0.135 for the first, 0.354 for the second.

First: RRIRQRPPRLPRPRPRPSPAPRP
Second: RRIRIRPPRLPRPRPRPFVCPRP
The “shrunken log2 fold change” value of the first is higher: 0.611 for the first, -0.797 for the second.

Compared with RRIRFRPPRLPRPRPRPEKTPRP, RRIRERPPRLPRPRPRPTNKPRP is lower in “shrunken log2 fold change” value: -0.00398 for the first, -0.533 for the second.

First: RRIRPRPPRLPRPRPRPNTVPRP
Second: RRIRYRPPRLPRPRPRPIYEPRP
The “shrunken log2 fold change” value of the first is lower: -0.411 for the first, 0.0166 for the second.

RRIRYRPPRLPRPRPRPHYSPRP and RRIRFRPPRLPRPRPRPMQWPRP are within 0.2 log units of each other in “shrunken log2 fold change” value: -0.124 for the first, -0.113 for the second.

Going from RRIRLRPPRLPRPRPRPVVDPRP to RRIRHRPPRLPRPRPRPTPWPRP, the “shrunken log2 fold change” value rises from 0.117 to 0.692.

RRIRPRPPRLPRPRPRPFLWPRP and RRIRNRPPRLPRPRPRPRRDPRP are within 0.2 log units of each other in “shrunken log2 fold change” value: 0.0275 for the first, -0.0239 for the second.

RRIRNRPPRLPRPRPRPHRMPRP and RRIRDRPPRLPRPRPRPSIFPRP are within 0.2 log units of each other in “shrunken log2 fold change” value: -0.0233 for the first, -0.049 for the second.

RRIRYRPPRLPRPRPRPAERPRP and RRIRERPPRLPRPRPRPGDLPRP are within 0.2 log units of each other in “shrunken log2 fold change” value: 0.0541 for the first, -0.0898 for the second.

Compared with RRIRGRPPRLPRPRPRPYTTPRP, RRIRARPPRLPRPRPRPNTEPRP is higher in “shrunken log2 fold change” value: -0.083 for the first, 0.154 for the second.

Going from RRIRARPPRLPRPRPRPPACPRP to RRIRMRPPRLPRPRPRPIRVPRP, the “shrunken log2 fold change” value falls from 0.817 to 0.335.

Going from RRIRRRPPRLPRPRPRPRVGPRP to RRIRRRPPRLPRPRPRPVTIPRP, the “shrunken log2 fold change” value falls from 0.68 to 0.297.

Compared with RRIRHRPPRLPRPRPRPFKHPRP, RRIRDRPPRLPRPRPRPIFWPRP is higher in “shrunken log2 fold change” value: -0.454 for the first, 0.0145 for the second.

Going from RRIRIRPPRLPRPRPRPDMKPRP to RRIRHRPPRLPRPRPRPPDPPRP, the “shrunken log2 fold change” value rises from -0.0106 to 0.832.

Compared with RRIRERPPRLPRPRPRPPPPPRP, RRIRDRPPRLPRPRPRPLQQPRP is lower in “shrunken log2 fold change” value: 0.646 for the first, 0.104 for the second.

First: RRIRPRPPRLPRPRPRPYYMPRP
Second: RRIRFRPPRLPRPRPRPYENPRP
The “shrunken log2 fold change” value of the first is lower: -0.864 for the first, -0.463 for the second.

Going from RRIRPRPPRLPRPRPRPQYFPRP to RRIRFRPPRLPRPRPRPYTKPRP, the “shrunken log2 fold change” value falls from -0.0988 to -0.573.

Compared with RRIRLRPPRLPRPRPRPEKTPRP, RRIRGRPPRLPRPRPRPTAYPRP is higher in “shrunken log2 fold change” value: -0.00142 for the first, 0.656 for the second.

RRIRCRPPRLPRPRPRPGWFPRP and RRIRVRPPRLPRPRPRPKFLPRP are within 0.2 log units of each other in “shrunken log2 fold change” value: 0.0546 for the first, -0.00678 for the second.

For RRIRCRPPRLPRPRPRPVAIPRP, the “shrunken log2 fold change” value was -0.156.
